Test results taken from patent publication US20240165253A1 (REMEGEN, published 2024).
Blank lines part the entries; values can stand above or below the binder they belong to.

How the values were obtained:
[1] = target: T1, c-Met protein (UniProt P08581 25-932, limits assumed); test: ELISA, plate coated with c-Met protein at 2 ug/ml, HRP detection antibody
T1 construct: The construct is not described; also called c-Met antigen
Procedure: The c-Met protein was prepared with a diluent to a final concentration of 2 μg/ml, and added to a microplate at 100 μl per well, overnight at 4° C. The solution in the well was discarded, and the plate was washed three times with PBST. The plate was added with a blocking solution at 300 μl/well and incubated at 37° C. for 2 h. The solution in the well was discarded, and the plate was washed three times with PBST. […] The solution in the well was discarded, and the plate was washed three times with PBST. HRP detection antibody was prepared by adding diluent at a dilution of 1:5000, added at 100 μl per well, and incubated at 37° C. for 1 h. The solution in the well was discarded, and the plate was washed three times with PB ST. The plate was added with TMB color developing solution, incubated at room temperature for 2 min, and then added with Elisa stop solution.

[2] = target: T2, soluble ED protein (UniProt P08581 25-932, limits assumed); test: ELISA, plate coated with soluble ED protein, HRP anti-human IgG Fc detection
T2 construct: domain: ED; It is read here as the c-Met extracellular domain because the antibodies are anti-c-Met
Procedure: The affinities of chimeric cAAJ8D6 and the humanized antibody AAJ8D6 were determined by ELISA. A 96-well plate was coated with soluble ED protein and then incubated with diluted antibodies. ED-related antibodies were detected with an HRP-conjugated goat F(ab′)2 anti-human IgG Fc-specific secondary antibody.

T1 sequence (P08581 25-932 limits assumed): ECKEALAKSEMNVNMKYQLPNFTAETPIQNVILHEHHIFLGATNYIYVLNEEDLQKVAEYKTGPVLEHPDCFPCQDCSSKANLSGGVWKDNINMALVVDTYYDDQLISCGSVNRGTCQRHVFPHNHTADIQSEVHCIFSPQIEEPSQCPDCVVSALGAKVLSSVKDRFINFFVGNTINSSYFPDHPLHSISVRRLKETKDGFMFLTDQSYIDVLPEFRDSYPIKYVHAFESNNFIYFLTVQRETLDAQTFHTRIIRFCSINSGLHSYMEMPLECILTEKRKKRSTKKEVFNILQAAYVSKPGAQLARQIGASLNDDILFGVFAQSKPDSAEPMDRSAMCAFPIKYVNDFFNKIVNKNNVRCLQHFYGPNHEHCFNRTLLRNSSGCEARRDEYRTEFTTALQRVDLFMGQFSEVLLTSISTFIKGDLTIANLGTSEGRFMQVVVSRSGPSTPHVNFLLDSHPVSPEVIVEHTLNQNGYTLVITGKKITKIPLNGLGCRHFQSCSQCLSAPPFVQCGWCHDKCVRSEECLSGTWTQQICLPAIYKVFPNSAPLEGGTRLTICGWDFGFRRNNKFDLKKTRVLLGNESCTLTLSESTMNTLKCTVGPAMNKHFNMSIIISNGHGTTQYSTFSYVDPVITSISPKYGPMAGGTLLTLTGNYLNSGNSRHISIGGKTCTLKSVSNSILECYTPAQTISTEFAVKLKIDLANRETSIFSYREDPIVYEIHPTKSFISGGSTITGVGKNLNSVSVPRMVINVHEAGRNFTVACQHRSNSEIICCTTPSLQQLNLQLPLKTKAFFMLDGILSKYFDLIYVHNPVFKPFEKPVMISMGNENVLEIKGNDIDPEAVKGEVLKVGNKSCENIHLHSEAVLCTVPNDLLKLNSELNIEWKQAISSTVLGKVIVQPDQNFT
T2 sequence (P08581 25-932 limits assumed): as above

EC50 [1]: 0.54 ng/mL
EC50 [2]: 3.53 ng/mL
B1: anti-c-Met humanized antibody AAJ8D6 (antibody, human IgG1, kappa, V domains shown)
VH: QVQLEQSGPEVVKPGASVKVSCKASGYSFTSYWMHWVRQAPGQGLEWMGMIDPSDSESRLNQKFKDRVTMTVDTPTSTVYMELSSPRSEDTAVYYCARSGYHGTSYWYFDVWGQGTLVTVSS
VL: DIVMTQSPLSLPVTPGEPASISCRSSKSLLHSDGITYLYWYLQKPGQSPQLLIYQMSNLASGVPDRFSGSGSGTDFTLKISRVEAEDVGVYYCAQNLELPPTFGGGTKVEIKR
notes: also called AAJ8D6 antibody

EC50 [1]: 1.33 ng/mL
B2: ABT-700 (telisotuzumab) (antibody, V domains shown)
VH: QVQLVQSGAEVKKPGASVKVSCKASGYIFTAYTMHWVRQAPGQGLEWMGWIKPNNGLANYAQKFQGRVTMTRDTSISTAYMELSRLRSDDTAVYYCARSEITTEFDYWGQGTLVTVSS
VL: DIVMTQSPDSLAVSLGERATINCKSSESVDSYANSFLHWYQQKPGQPPKLLIYRASTRESGVPDRFSGSGSGTDFTLTISSLQAEDVAVYYCQQSKEDPLTFGGGTKVEIKR
